In patent publication US20230365711A1 (Hoffmann-La Roche, published 2023):
Values belong to the binder of their own block, whether it stands above or below them.

How the values were obtained:
[1] = biological target: T1, human carcinoembryonic antigen (CEA), membrane-bound on cells (human, UniProt P06731 35-685); assay: FACS on MKN-45 cells
T1 construct: whole, on cells; also called CEACAM-5; CD66e
T1 sequence (looked up): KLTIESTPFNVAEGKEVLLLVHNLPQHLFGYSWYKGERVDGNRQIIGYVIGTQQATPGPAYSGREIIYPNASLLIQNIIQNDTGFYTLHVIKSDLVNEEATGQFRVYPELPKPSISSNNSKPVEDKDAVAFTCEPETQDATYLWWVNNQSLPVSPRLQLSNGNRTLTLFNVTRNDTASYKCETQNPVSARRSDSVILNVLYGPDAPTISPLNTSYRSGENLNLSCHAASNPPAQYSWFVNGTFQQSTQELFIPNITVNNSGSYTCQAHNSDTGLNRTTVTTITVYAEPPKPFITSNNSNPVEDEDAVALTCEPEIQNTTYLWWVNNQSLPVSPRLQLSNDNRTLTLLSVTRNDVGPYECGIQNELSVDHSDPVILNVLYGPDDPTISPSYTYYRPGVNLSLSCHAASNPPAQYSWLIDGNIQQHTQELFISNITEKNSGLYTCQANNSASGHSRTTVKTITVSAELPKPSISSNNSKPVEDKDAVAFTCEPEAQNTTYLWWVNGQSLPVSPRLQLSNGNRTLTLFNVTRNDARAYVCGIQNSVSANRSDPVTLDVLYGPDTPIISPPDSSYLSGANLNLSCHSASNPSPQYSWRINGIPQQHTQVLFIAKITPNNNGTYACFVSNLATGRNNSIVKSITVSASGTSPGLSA
Protocol: CH1A1 includes the M69F/T71L double point mutation. The latter three variants have the entire frameworks 1, 2, or 3, respectively, replaced by the murine counterpart. […] In this assay, cell binding of the CH1A-based antibody variants to CEA-expressing MKN-45 cells was analyzed at various concentrations. The affinity-matured light chain 2F1 was identical for all antibodies tested except for the parental antibody where the original light chain CL1A was used. Mean fluorescence was determined by FACS analysis. […] The DLS assay was performed using 1 mg/ml of the antibodies in a buffer of 20 mM Histidine and 140 mM NaCl at pH 6.0. The assay was conducted starting at 25° C. with an incremental temperature increase of 0.05° C./min up to 70° C. All antibodies tested in this assay had 2F1 as the light chain

[2] = biological target: T2, huNABA-avi-his (hybrid protein N-A1-B3-A2: N and A1 domains of human BGP, B3 domain of human CEA, A2 domain … (human, biotinylated at the avi tag (in vivo, co-transfected biotin ligase))); assay: Biacore, column Affinity, CDR-H1 and CDR-H2 rows; antigen not named on the sheet, NABA-avi-his per paragraph 230
T2 construct: also called NABA-avi-his reagent; biotinylated NABA
T2 chain: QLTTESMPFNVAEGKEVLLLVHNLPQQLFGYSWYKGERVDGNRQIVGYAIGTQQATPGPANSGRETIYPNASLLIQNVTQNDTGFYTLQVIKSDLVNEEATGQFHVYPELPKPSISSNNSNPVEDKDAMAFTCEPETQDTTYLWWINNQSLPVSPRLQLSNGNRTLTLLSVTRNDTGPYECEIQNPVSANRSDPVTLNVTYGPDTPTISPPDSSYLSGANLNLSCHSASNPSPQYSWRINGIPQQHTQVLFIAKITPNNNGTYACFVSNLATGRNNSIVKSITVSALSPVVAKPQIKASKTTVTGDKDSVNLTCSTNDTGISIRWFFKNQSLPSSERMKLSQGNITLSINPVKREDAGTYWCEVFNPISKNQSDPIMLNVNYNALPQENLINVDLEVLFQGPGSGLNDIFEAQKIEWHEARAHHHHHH

[3] = biological target: T2, huNABA-avi-his (hybrid protein …); assay: Biacore, column Affinity, CDR-H3 rows; antigen not named on the sheet, NABA-avi-his per paragraph 230
[4] = biological target: huNABA-avi-his (hybrid protein N-A1-B3-A2: N and A1 domains of human BGP, B3 domain of human CEA, A2 domain of BGP, with precision protease site, avi tag and (His)6 tag), biotinylated (human); assay: Biacore on immobilized NABA-avi-his; Bivalent Affinity
[5] = biological target: T2, huNABA-avi-his (hybrid protein …); assay: Biacore, Fab on immobilized NABA-avi-his; column Monovalent Affinity
[6] = biological target: T2, huNABA-avi-his (hybrid protein …); assay: Biacore, column Affinity, CDR-L1 and CDR-L2 rows (QNVGTN and PLI-YSASYRYS); antigen not named on the sheet, NABA-avi-his per paragraph 230
[7] = biological target: T2, huNABA-avi-his (hybrid protein …); assay: Biacore SPR, Fab; antigen not named on the sheet, NABA-avi-his per paragraph 230
[8] = biological target: T2, huNABA-avi-his (hybrid protein …); assay: Biacore, column Affinity, CDR-H1 and CDR-H2 rows; antigen not named on the sheet, NABA-avi-his per paragraph 230
[9] = biological target: T1, human carcinoembryonic antigen (CEA), …; assay: flow cytometry on CEA positive MKN45 cells, IgG [lower panel]
Protocol: (§1) An affinity matured heavy chain variable region construct, CH7A rF9, and an affinity matured light chain variable region construct, CL1A rH11, were paired with the parent light chain variable region construct and the heavy chain variable region construct, respectively, and with each other. All antibodies were converted into human IgG1/kappa and binding to the CEA-positive cell-line MKN45 was measured by flow cytometry. […] The matured light chain shifts the EC50 values to lower numbers, whereas the matured heavy chains (rF9 in FIG. 6, and rB9 in FIG. 15) shift the total fluorescence signal intensity in a flow-cytometry measurement. […] The combination of these two chains increases the affinity even further.

[10] = biological target: T1, human carcinoembryonic antigen (CEA), …; assay: flow cytometry on MKN45 cells, IgG1/kappa
Protocol: as §1

[11] = biological target: T2, huNABA-avi-his (hybrid protein …); assay: Biacore on immobilized NABA-avi-his; Bivalent Affinity

- EC50 (read off the curve) [1]: ~0.8 µg/mL
B1: anti-CEA antibody with heavy chain CH1A4 and light chain 2F1 (antibody, V domains shown)
VH: QVQLVQSGAEVKKPGASVKVSCKASGYTFTEFGMNWVRQAPGQGLEWMGWINTKTGEATYVEEFKGRFAFSLETSATTAYLQINNLKNEDTAKYFCARWDFYDYVEAMDYWGQGTTVTVSS
VL: DIQMTQSPSSLSASVGDRVTITCKASAAVGTYVAWYQQKPGKAPKLLIYSASYRKRGVPSRFSGSGSGTDFTLTISSLQPEDFATYYCHQYYTYPLFTFGQGTKLEIKR

- Kd [2]: 26 nM
- Kd [3]: 26 nM
- Kd [4]: 0.19 nM
- koff [4]: 0.000175 s⁻¹
- kon [4]: 902000 M⁻¹ s⁻¹
- Kd [5]: 24 nM
- koff [5]: 0.0013 s⁻¹
- kon [5]: 54200 M⁻¹ s⁻¹
B2: H3 Full (5) 19 (Fab, V domains shown)
VH: QVQLVQSGSELKKPGASVKVSCKASGYTFTEFGMSWVRQAPGQGLEWMGWINTKTGEATYVEEFKGRFVFSLDTSVSTAYLQISSLKAEDTAVYYCARWDAFEYVKALDYWGQGTTVTVSS
VL: DIQMTQSPSSLSASVGDRVTITCKASQNVGTNVAWYQQKPGKAPKLLIYSASYRYSGVPSRFSGSGSGTDFTLTISSLQPEDFATYYCHQYYTYPLFTFGQGTKLEIK

- Kd [6]: 402 nM
- Kd [5]: 402 nM
- koff [5]: 0.0021 s⁻¹
- kon [5]: 5220 M⁻¹ s⁻¹
- Kd [7]: 518 nM
- Kd [8]: 402 nM
B3: anti-CEA Fab with affinity matured heavy chain CH7A H4E9 and unmatured light chain CL1A (Fab, V domains shown)
VH: QVQLVQSGSELKKPGASVKVSCKASGYTFTEFGMNWVRQAPGQGLEWMGWINTKTGEATYIEEFKGRFVFSLDTSVSTAYLQISSLKAEDTAVYYCARWDFYDYVEAMDYWGQGTTVTVSS
VL: DIQMTQSPSSLSASVGDRVTITCKASQNVGTNVAWYQQKPGKAPKLLIYSASYRYSGVPSRFSGSGSGTDFTLTISSLQPEDFATYYCHQYYTYPLFTFGQGTKLEIK
notes: Fab format, bacterially expressed; also called CH7A H4E9 + CL1A

- EC50 (read off the curve) [9]: ~0.6 µg/mL
- EC50 (read off the curve) [10]: ~0.6 µg/mL
- Kd [11]: 2 nM
- koff [11]: 0.000552 s⁻¹
- kon [11]: 282000 M⁻¹ s⁻¹
B4: humanized PR1A3 antibody comprising heavy chain variable region construct CH7A and light chain variable region construct CL1A (antibody, human IgG1, V domains shown)
VH: QVQLVQSGSELKKPGASVKVSCKASGYTFTEFGMNWVRQAPGQGLEWMGWINTKTGEATYVEEFKGRFVFSLDTSVSTAYLQISSLKAEDTAVYYCARWDFYDYVEAMDYWGQGTTVTVSS
VL: DIQMTQSPSSLSASVGDRVTITCKASQNVGTNVAWYQQKPGKAPKLLIYSASYRYSGVPSRFSGSGSGTDFTLTISSLQPEDFATYYCHQYYTYPLFTFGQGTKLEIK
notes: also called CH7A CL1A; CH7A, CL1A
